Results on two proteins are retold here after US20100111943.

This series concerns the target FLAG (F)-tagged hsp90α (wild type), P07900.

B1: p300 protein (upstate) (protein)
chain: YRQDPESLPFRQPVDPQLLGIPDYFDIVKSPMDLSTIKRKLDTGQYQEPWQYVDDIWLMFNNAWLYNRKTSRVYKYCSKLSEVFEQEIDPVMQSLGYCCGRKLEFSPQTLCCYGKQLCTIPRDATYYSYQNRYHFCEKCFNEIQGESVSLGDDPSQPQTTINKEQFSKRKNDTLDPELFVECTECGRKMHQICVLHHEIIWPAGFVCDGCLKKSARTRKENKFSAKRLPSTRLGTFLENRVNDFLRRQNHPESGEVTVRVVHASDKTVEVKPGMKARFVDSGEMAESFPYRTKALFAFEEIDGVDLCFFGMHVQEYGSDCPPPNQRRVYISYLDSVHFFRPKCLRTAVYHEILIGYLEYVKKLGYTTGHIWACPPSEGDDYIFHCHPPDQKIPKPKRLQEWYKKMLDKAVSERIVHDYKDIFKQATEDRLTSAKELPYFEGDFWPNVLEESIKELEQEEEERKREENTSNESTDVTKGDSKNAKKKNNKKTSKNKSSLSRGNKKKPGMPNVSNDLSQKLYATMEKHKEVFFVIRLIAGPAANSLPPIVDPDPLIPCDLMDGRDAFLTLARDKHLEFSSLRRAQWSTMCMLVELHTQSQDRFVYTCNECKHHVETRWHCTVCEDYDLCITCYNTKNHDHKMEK
For the protein B1, the “in vitro acetylation of hsp90α, Western analysis with anti-AcK antibody” value was “Co-incubation with p300 was discovered to dose-dependently stimulate the acetylation of hsp90α”.

B2: PCAF (protein)
chain: MSEAGGAGPGGCGAGAGAGAGPGALPPQPAALPPAPPQGSPCAAAAGGSGACGPATAVAAAGTAEGPGGGGSARIAVKKAQLRSAPRAKKLEKLGVYSACKAEESCKCNGWKNPNPSPTPPRADLQQIIVSLTESCRSCSHALAAHVSHLENVSEEEMNRLLGIVLDVEYLFTCVHKEEDADTKQVYFYLFKLLRKSILQRGKPVVEGSLEKKPPFEKPSIEQGVNNFVQYKFSHLPAKERQTIVELAKMFLNRINYWHLEAPSQRRLRSPNDDISGYKENYTRWLCYCNVPQFCDSLPRYETTQVFGRTLLRSVFTVMRRQLLEQARQEKDKLPLEKRTLILTHFPKFLSMLEEEVYSQNSPIWDQDFLSASSRTSQLGIQTVINPPPVAGTISYNSTSSSLEQPNAGSSSPACKASSGLEANPGEKRKMTDSHVLEEAKKPRVMGDIPMELINEVMSTITDPAAMLGPETNFLSAHSARDEAARLEERRGVIEFHVVGNSLNQKPNKKILMWLVGLQNVFSHQLPRMPKEYITRLVFDPKHKTLALIKDGRVIGGICFRMFPSQGFTEIVFCAVTSNEQVKGYGTHLMNHLKEYHIKHDILNFLTYADEYAIGYFKKQGFSKEIKIPKTKYVGYIKDYEGATLMGCELNPRIPYTEFSVIIKKQKEIIKKLIERKQAQIRKVYPGLSCFKDGVRQIPIESIPGIRETGWKPSGKEKSKEPRDPDQLYSTLKSILQQVKSHQSAWPFMEPVKRTEAPGYYEVIRFPMDLKTMSERLKNRYYVSKKLFMADLQRVFTNCKEYNPPESEYYKCANILEKFFFSKIKEAGLIDK
B2: the “in vitro acetylation of hsp90α, Western analysis with anti-AcK antibody” value was “This was not seen with PCAF”.
